Drawing on paper PMC3137072, this text covers FRAP, t½ of recovery of GFP-tagged full-length G2L3 on MTs in NIH3T3 cells for 1 molecule.

In the test the target is microtubules (polymerized tubulin) (UniProt Q6B856).
Sequence of microtubules (polymerized tubulin) (Q6B856 whole entry, looked up): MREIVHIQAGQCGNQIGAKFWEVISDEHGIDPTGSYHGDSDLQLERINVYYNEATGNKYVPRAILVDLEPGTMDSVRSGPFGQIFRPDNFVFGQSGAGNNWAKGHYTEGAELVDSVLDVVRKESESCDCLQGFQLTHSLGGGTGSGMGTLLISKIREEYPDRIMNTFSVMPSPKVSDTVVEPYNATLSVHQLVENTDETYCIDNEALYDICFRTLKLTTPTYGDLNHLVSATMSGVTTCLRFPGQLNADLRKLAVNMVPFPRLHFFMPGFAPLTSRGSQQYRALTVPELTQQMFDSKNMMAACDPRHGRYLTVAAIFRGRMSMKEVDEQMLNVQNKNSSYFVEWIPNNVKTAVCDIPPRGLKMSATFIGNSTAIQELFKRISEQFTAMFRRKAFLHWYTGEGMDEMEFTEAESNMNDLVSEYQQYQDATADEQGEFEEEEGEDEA

B1: GAS2-like 3 (G2L3), full length, GFP-tagged (natural protein)
chain: MQPAIQVWFGEDLPLSPRSPLTPRHGPGLANVCQYDEWIAVRHEATLLPMQEDLSIWLSGLLGIKVKAEKLLEELDNGVLLCQLIDVLQNMVKTCNSEESGNFPMRKVPCKKDAASGSFFARDNTANFLHWCRDIGVDETYLFESEGLVLHKDPRQVYLCLLEIGRIVSRYGVEPPVLVKLEKEIELEETLLNTSGPEDSISIPKSCCRHEELHEAVKHIAEDPPCSCSHRFSIEYLSEGRYRLGDKILFIRMLHGKHVMVRVGGGWDTLQGFLLKYDPCRILQFATLEQKILAFQKGVSNESVPDSPARTPQPPEMNPLSAVNMFQKQNSKPSVPVSIPKSKEKQGRPPGALVPASSLKGGNLGSMSVRSKLPNSPAASSHPKLKSSKGITKKPQAPSNNASSSLASLNPVGKNTSSPALPRTAPCISESPRKCISSPNTPKAKVIPAQNSADLPESTLLPNKCSGKTQPKYLKHNHISSRDNAVSHLAAHSNSSSKCPKLPKANIPVRPKPSFQSSAKMTKTSSKTIATGLGTQSQPSDGAPQAKPVPAQKLKSALNLNQPVSVSSVSPVKATQKSKDKNIVSATKKQPQNKSAFQKTGPSSLKSPGRTPLSIVSLPQSSTKTQTAPKSAQTVAKSQHSTKGPPRSGKTPASIRKPPSSVKDADSGDKKPTAKKKEDDDHYFVMTGSKKPRK
On to B1, for which the FRAP, t½ of recovery of GFP-tagged full-length G2L3 on MTs in NIH3T3 cells is 14.9 s.
